Common to all, as to test: EMSA; strands added sequentially; Anisotropy: 50 mM Tris-HCl pH 7.5, 1 mM DTT, 0.1 mg/mL BSA, 10 nM FAM48, 23 °C (Kd per monomer); gel assay: 10 µM Redβ, 50 µM nt of each oligo, PBS, 37 °C, 1% agarose at 22 °C
Common to all, as to details: protein: recombinant; tags: 6xHis removed by thrombin; residual N-terminal GSH; label: 5'-Cy3 and 5'-Cy5; complementary 50-mers; annealed by protein
For orientation: In EMSA bound probe runs differently from free probe, usually more slowly.

In one series the target is T1, Redβ K36A (bacteriophage λ, UniProt P03698 1-261, K36A).
T1 sequence: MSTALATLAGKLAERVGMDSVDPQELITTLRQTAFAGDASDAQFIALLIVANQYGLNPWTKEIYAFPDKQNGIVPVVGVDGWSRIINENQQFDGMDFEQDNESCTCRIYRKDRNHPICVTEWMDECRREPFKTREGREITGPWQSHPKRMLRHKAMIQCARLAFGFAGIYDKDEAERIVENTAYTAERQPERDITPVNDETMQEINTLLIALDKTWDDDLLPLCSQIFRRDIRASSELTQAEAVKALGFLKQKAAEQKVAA

For the next series, the target named is T2, Redβ K245A (bacteriophage λ, UniProt P03698 1-261, K245A).
T2 sequence: T1 sequence with A36K, K245A

Another series addresses T3, Redβ K132A (bacteriophage λ, UniProt P03698 1-261, K132A).
T3 sequence: T1 sequence with A36K, K132A

Another series has as its target T4, Redβ K251A (bacteriophage λ, UniProt P03698 1-261, K251A).
T4 sequence: T1 sequence with A36K, K251A

The target of a further series is T5, Redβ K148A (bacteriophage λ, UniProt P03698 1-261, K148A).
T5 sequence: T1 sequence with A36K, K148A

A further series concerns the target T6, Redβ K172A (bacteriophage λ, UniProt P03698 1-261, K172A).
T6 sequence: T1 sequence with A36K, K172A

Positions count from the first letter of the chain named.

Consider one molecule from PMC8303780, “Mutational Analysis of Redβ Single Strand Annealing Protein: Roles of the 14 Lysine Residues in DNA Binding and Recombination In Vivo”.

B1: annealed duplex of Cy3 and Cy5 50-mers, strands added sequentially (dsDNA)
DNA 1: GCGGATGGCTTAGAGCAGAATCGCCCTGCATAGCTCGATTTTTGCGGATG
DNA 2: CCATCCGCAAAAATCGAGCTATGCAGGGCGATTCTGCTCTAAGCCATCCG
Regarding B1, the binding result was “binds” with Redβ K36A; “binds” with Redβ K245A; “no binding” in the series with Redβ K132A; “binds” with Redβ K251A; “no binding” with Redβ K148A; “no binding” in the series with Redβ K172A.
